This assay deals with T1, human apical domain TfR (human, UniProt P02786 198-378).
T1 construct: The SPR analyte is printed only as "human apical domain TfR"; also called human TfR; human transferrin receptor 1 apical domain
Put plainly: Biacore SPR as in Example 2; steady-state fit. The protocol: To determine whether SGSH-Fc fusion proteins with engineered TfR binding affects the ability of the modified Fc domain to interact with human TfR, the affinity of ETV: SGSH Bizyme Structure 1 (Example 1) for human TfR was assessed using a Biacore™ surface plasmon resonance assay. Biacore™ Series S CM5 sensor chips were immobilized with anti-human Fab (human Fab capture kit from GE Healthcare). 5 μg/mL of the SGSH-Fc fusion proteins were captured for 1 minute on each flow cell and serial 3-fold dilutions of human apical domain TfR were injected at a flow rate of 30 μL/min. Each sample was analyzed with a 3-minute association and a 3-minute dissociation. After each injection, the chip was regenerated using 10 mM glycine-HCl (pH 2.1). Binding response was corrected by subtracting the RU from a flow cell capturing an irrelevant IgG at similar density. Steady-state affinities were obtained by fitting the response at equilibrium against the concentration using Biacore™ T200 Evaluation Software v3.1. Biacore™ analysis established that SGSH-Fc fusion proteins with a TfR-binding site engineered into the Fc region bind to human TfR.
Background: In SPR one partner is held on a chip, and binding of the other changes the refractive index at the surface.

T1 sequence (P02786 198-378 limits assumed): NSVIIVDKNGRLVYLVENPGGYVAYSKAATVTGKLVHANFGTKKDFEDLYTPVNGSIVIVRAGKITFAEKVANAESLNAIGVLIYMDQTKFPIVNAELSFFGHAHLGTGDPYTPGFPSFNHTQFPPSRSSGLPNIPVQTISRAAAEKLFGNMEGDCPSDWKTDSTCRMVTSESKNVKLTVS

B1: ETV:SGSH Bizyme Structure 4 (Fc fusion)
chain 1: RPRNALLLLADDGGFESGAYNNSAIATPHLDALARRSLLFRNAFTSVSSCSPSRASLLTGLPQHQNGMYGLHQDVHHFNSFDKVRSLPLLLSQAGVRTGIIGKKHVGPETVYPFDFAYTEENGSVLQVGRNITRIKLLVRKFLQTQDDRPFFLYVAFHDPHRCGHSQPQYGTFCEKFGNGESGMGRIPDWTPQAYDPLDVLVPYFVPNTPAARADLAAQYTTVGRMDQGVGLVLQELRDAGVLNDTLVIFTSDNGIPFPSGRTNLYWPGTAEPLLVSSPEHPKRWGQVSEAYVSLLDLTPTILDWFSIPYPSYAIFGSKTIHLTGRSLLPALEAEPLWATVFGSQSHHEVTMSYPMRSVQHRHFRLVHNLNFKMPFPIDQDFYVSPTFQDLLNRTTAGQPTGWYKDLRHYYYRARWELYDRSRDPHETQNLATDPRFAQLLEMLRDQLAKWQWETHDPWVCAPDGVLEEKLSPQCQPLHNELGGGGSDKTHTCPPCPAPEAAGGPSVFLFPPKPKDTLMISRTPEVTCVVVDVSHEDPEVKFNWYVDGVEVHNAKTKPREEQYNSTYRVVSVLTVLHQDWLNGKEYKCKVSNKALSAPIEKTISKAKGQPREPQVYTLPPSRDELTKNQVSLSCAVKGFYPSDIAVEWESNGQPENNYKTTPPVLDSDGSFFLVSKLTVDKSRWQQGNVFSCSVMHEALHNHYTQKSLSLSPGK
chain 2: RPRNALLLLADDGGFESGAYNNSAIATPHLDALARRSLLFRNAFTSVSSCSPSRASLLTGLPQHQNGMYGLHQDVHHFNSFDKVRSLPLLLSQAGVRTGIIGKKHVGPETVYPFDFAYTEENGSVLQVGRNITRIKLLVRKFLQTQDDRPFFLYVAFHDPHRCGHSQPQYGTFCEKFGNGESGMGRIPDWTPQAYDPLDVLVPYFVPNTPAARADLAAQYTTVGRMDQGVGLVLQELRDAGVLNDTLVIFTSDNGIPFPSGRTNLYWPGTAEPLLVSSPEHPKRWGQVSEAYVSLLDLTPTILDWFSIPYPSYAIFGSKTIHLTGRSLLPALEAEPLWATVFGSQSHHEVTMSYPMRSVQHRHFRLVHNLNFKMPFPIDQDFYVSPTFQDLLNRTTAGQPTGWYKDLRHYYYRARWELYDRSRDPHETQNLATDPRFAQLLEMLRDQLAKWQWETHDPWVCAPDGVLEEKLSPQCQPLHNELGGGGSDKTHTCPPCPAPEAAGGPSVFLFPPKPKDTLMISRTPEVTCVVVDVSHEDPEVKFNWYVDGVEVHNAKTKPREEQYNSTYRVVSVLTVLHQDWLNGKEYKCKVSNKALSAPIEKTISKAKGQPREPQVYTLPPSRDELTKNQVSLWCLVKGFYPSDIAVEWESYGTEWANYKTTPPVLDSDGSFFLYSKLTVTKEEWQQGFVFSCSVMHEALHNHYTQKSLSLSPGK
modifications: SGSH cysteine at position 70 (full-length SGSH numbering) largely converted to formylglycine (fGly 99% in Table 2); the fGly form is SEQ ID NO:95; SGSH cysteine at position 70 (full-length SGSH numbering) largely converted to formylglycine (fGly 99% in Table 2); the fGly form is SEQ ID NO:67
notes: Heterodimer; The preparation may be a mixture; also called fourth "N-terminal bizyme" SGSH-Fc fusion protein; P329S variant of Bizyme Structure 1
Usually Kd stands for the concentration at which binding is half-saturated. Regarding B1, the Kd was 340 nM.
